Measured values taken from PMC11452378 (Scientific Reports, 2024).

What was measured:
[1] = target: extracellular fragment of FcRn (UniProt P55899); test: BLI; biotinylated FcRn immobilized on Streptavidin (SA) biosensors (Octet Red384); antibodies in solution, 345 to 5.39 nM; PBS-HCl pH 6.0 0.1% Tween-20; at least triplicate
[2] = target: extracellular fragment of FcγRIIa (131H) (UniProt P12318); test: BLI; biotinylated FcγR immobilized on Streptavidin (SA) biosensors (Octet Red384); antibodies in solution as serial dilutions; PBS pH 7.4 0.1% BSA 0.1% Tween-20; at least triplicate
Chain of extracellular fragment of FcγRIIa (131H) (P12318 34-217): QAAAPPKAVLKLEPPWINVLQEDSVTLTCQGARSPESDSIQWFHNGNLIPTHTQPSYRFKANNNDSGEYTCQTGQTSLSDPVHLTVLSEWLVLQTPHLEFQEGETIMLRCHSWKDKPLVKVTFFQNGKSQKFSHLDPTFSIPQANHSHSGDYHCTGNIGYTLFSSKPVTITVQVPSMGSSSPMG

[3] = target: extracellular fragment of FcγRIa (UniProt P12314); test: as above
Chain of extracellular fragment of FcγRIa (P12314 16-292): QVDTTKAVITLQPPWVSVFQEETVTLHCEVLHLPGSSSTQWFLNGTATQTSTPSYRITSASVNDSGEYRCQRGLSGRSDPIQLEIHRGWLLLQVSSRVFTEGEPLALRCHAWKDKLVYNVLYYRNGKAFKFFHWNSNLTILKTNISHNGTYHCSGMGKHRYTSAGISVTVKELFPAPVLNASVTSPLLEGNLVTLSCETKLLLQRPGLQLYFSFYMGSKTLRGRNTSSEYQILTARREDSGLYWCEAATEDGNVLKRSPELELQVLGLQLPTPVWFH

[4] = target: extracellular fragment of FcγRIIb (UniProt P31994); test: as above
Chain of extracellular fragment of FcγRIIb (P31994 43-217): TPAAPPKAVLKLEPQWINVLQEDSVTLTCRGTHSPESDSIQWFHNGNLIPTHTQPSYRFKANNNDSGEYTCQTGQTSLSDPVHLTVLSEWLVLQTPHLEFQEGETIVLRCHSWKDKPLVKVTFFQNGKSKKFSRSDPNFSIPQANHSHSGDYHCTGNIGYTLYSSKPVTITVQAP

[5] = target: extracellular fragment of FcγRIIIa (158F) (UniProt P08637); test: as above
Chain of extracellular fragment of FcγRIIIa (158F) (P08637 17-208): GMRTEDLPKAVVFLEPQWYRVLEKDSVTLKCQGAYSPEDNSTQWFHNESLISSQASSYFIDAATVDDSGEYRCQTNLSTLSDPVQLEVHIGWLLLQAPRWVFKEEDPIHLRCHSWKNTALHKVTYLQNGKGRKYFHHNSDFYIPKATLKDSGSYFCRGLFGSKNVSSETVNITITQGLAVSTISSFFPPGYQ

[6] = target: extracellular fragment of FcγRIIa (131R); test: as above
[7] = target: extracellular fragment of FcγRIIIa (158V); test: as above
[8] = target: T1, extracellular domain of PD-1 receptor (R&D Systems) (Homo sapiens, UniProt Q15116); test: SPR; PD-1 extracellular domain immobilized on a Planar Polyethylene Glycol/Carboxyl Sensor Chip (Reichert4SPR); antibodies in solution, 10; 3.33; 1.11; 0.37; 0.12 nM in PBS 0.02% Tween-20 pH 7.4; multi-step kinetics; triplicate; conditions: both partners purified
T1 construct: Programmed cell death protein 1 (PD-1), extracellular domain; also called Programmed cell death protein 1; source: bought: R&D Systems
T1 sequence (Q15116 25-170): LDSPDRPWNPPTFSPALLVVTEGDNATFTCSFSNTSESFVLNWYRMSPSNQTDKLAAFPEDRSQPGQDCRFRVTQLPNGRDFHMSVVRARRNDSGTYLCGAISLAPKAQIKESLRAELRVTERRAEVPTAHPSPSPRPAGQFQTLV

Chain of extracellular fragment of FcRn (P55899 24-297): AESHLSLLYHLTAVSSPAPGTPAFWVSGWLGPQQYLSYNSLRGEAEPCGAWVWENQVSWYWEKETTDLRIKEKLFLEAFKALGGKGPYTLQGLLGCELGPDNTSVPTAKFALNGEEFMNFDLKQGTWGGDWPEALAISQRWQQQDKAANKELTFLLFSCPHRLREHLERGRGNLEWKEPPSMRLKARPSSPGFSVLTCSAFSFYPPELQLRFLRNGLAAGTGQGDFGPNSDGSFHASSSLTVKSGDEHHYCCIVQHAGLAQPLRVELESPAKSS

| Molecule | Kd [1] [µM] | Kd [2] [µM] | Kd [3] [µM] | Kd [4] [µM] | Kd [5] [µM] | Kd [6] [µM] | Kd [7] [µM] | Kd [8] [pM] |
| --- | --- | --- | --- | --- | --- | --- | --- | --- |
| Nivolumab (antibody) | 0.0248 | 13.1 | 0.074 | 0.93 | 16.6 | 2 | 8.97 |  |
| Pembrolizumab (antibody, V domains shown, variable domain of the pembrolizumab heavy chain; constant region of the IgG4 heavy chain; light chain of pembrolizumab; IgG4; Whole therapeutic antibody in all assays; also called anti-PD-1 antibody; IgG4) VH: QVQLVQSGVEVKKPGASVKVSCKASGYTFTNYYMYWVRQAPGQGLEWMGGINPSNGGTNFNEKFKNRVTLTTDSSTTTAYMELKSLQFDDTAVYYCARRDYRFDMGFDYWGQGTTVTVSS VL: EIVLTQSPATLSLSPGERATLSCRASKGVSTSGYSYLHWYQQKPGQAPRLLIYLASYLESGVPARFSGSGSGTDFTLTISSLEPEDFAVYYCQHSRDLPLTFGGGTKVEIK | 0.025 | 11.1 | 0.085 | 8.64 | 19.9 |  |  | 4.7 |

Results, then the molecule that gave them:

| Kd [1] [µM] | Kd [2] [µM] | Kd [3] [µM] | Kd [4] [µM] | Kd [5] [µM] | Kd [6] [µM] | Kd [7] [µM] | Kd [8] [pM] | Molecule |
| --- | --- | --- | --- | --- | --- | --- | --- | --- |
|  |  |  |  |  | 5.17 | 5.24 |  | Pembrolizumab (antibody) |
| 0.0153 | 14.6 | 0.9 | 21 | 12.7 | 9.66 | 1.33 |  | Prolgolimab (antibody, V domains shown) VH: QVQLVQSGGGLVQPGGSLRLSCAASGFTFSSYWMYWVRQVPGKGLEWVSAIDTGGGRTYYADSVKGRFAISRVNAKNTMYLQMNSLRAEDTAVYYCARDEGGGTGWGVLKDWPYGLDAWGQGTLVTVSS VL: QPVLTQPLSVSVALGQTARITCGGNNIGSKNVHWYQQKPGQAPVLVIYRDSNRPSGIPERFSGSNSGNTATLTISRAQAGDEADYYCQVWDSSTAVFGTGTKLTVL |
